Assay results as given in PMC9114487, “Generation of a High-Affinity Nanobody Against CD147 for Tumor Targeting and Therapeutic Efficacy Through Conjugating Doxorubicin” (Frontiers in Immunology, 2022).
Residue numbers refer to the chain shown, from its start.

B1: anti-CD147 nanobody 11-1 (VHH)
VHH: QVQLQESGGGSVQAGGSLRLSCAVSGYTYSSCSMDWYRQAPGKERELVSSISSGGNTYYEDSVKGRFTISQDNAKNTVYLQMNSLKPEDTASYYCKMWCPGNKSYWGQGTQVTVSS
notes: Selected by phage display from an immune VHH library; The immunised animal is called an alpaca in the methods, a camel in the results and a Bactrian camel in the discussion; About 13 kDa by SDS-PAGE; Surmise: pET-15b usually adds an N-terminal His tag; also called Nb 11-1; anti-CD147-VHH Nb (11-1); source: E. coli BL21(DE3), pET-15b, purified (His-Trap HP column)
B2: EGFP-VHH fusion protein EGFP-11-1 (VHH)
VHH: B1 VHH
notes: as the VHH of m1; About 40 kDa by SDS-PAGE; also called 11-1-EGFP; EGFP-11-1 Nbs; source: E. coli BL21(DE3), pET-25b, purified (His-Trap HP column); not shown: EGFP, C-terminal, kept
B3: V-1 (VHH)
VHH: QVQLQESGGGSVQAGGSLRLSCRASGYTFSRHCMGWFRQGPGKEREVVATIYTFNGRTYYADSVKGRFTVSQDNAQNSLYLQMDSLKPEDTAMYYCAAARIGWTSVSGSCPRMGDVNKYWGQGTQVTVSS
B4: V-2 (VHH)
VHH: B3 VHH with R57H, V70I, A75P, Y80T
B5: V-3 (VHH)
VHH: B3 VHH with S17T, A24V, Y59S, V70I, M93T, V116E
B6: V-4 (VHH)
VHH: B1 VHH with A23S, Y27G, Y29F, Y37F, E44V, N76T, S92M, W98F, G101W
B7: V-5 (VHH)
VHH: QVQLQESGGGSVQAGETLTLSCTASGYTFSSSNCMGWFRQAPGQEREDVAIISVRGGITYYADSVKGRFTISRDNAKNTLSLQMNSLKPEDTAVYYCAADNPKYRDLYNAHCNWSYRYWGQGTQVTVSS
B8: V-7 (VHH)
VHH: B7 VHH with E16G, T17S, T19R, T23A, Q44K, N75S, D106A, Y108S, N109D
B9: V-9 (VHH)
VHH: B7 VHH with E16G, T17S, T19R, T23A, A62V, S86N, N109D
B10: V-10 (VHH)
VHH: B1 VHH with A23S, Y27S, Y29F, Y37F, E46G, S92M
B11: V-11 (VHH)
VHH: B3 VHH with V47L, T50S, V70I, V116E
B12: V-13 (VHH)
VHH: B3 VHH with R31E, V70I
B13: V-14 (VHH)
VHH: B3 VHH with V70I
B14: V-15 (VHH)
VHH: B7 VHH with V12A, E16G, T17S, T19R, T23A, Q44K, D48G, N109D
B15: V-17 (VHH)
VHH: B1 VHH with Q81R, S92I, G101W
B16: V-18 (VHH)
VHH: B7 VHH with E16G, T17S, T19R, T23A, Q44K, A62T, S86N, E90D, N109G
B17: V-19 (VHH)
VHH: B3 VHH with S25P, K43E, Y59T, V70I, V106A, V116E
B18: V-20 (VHH)
VHH: B7 VHH with E16G, T17S, T19R, T23A, A62V, S86N, Y108H, N109G, A110G
B19: V-21 (VHH)
VHH: B7 VHH with E16G, T17S, T19R, T23A, Q44K, N75S, P89S, D106Q, Y108S
B20: V-22 (VHH)
VHH: B3 VHH with G40T, R57H, V70I
B21: V-23 (VHH)
VHH: B3 VHH with R31E, V47L, T50S, V70I
B22: V-24 (VHH)
VHH: QVQLQESGGGLVLPGGSLRLSCAAFGFIFSDFDMSWVRQAPGKGLEWVSSISRYGRTSSADSVKGRFTISRDNAKNTLYLQMHSLKTDDTAVYYCATGNFCSGGRCYIDRGQGTQVTVSS
B23: V-25 (VHH)
VHH: B22 VHH with L13Q, D31N, Q81E, H83N, T87S, D88A, D109N
B24: V-26 (VHH)
VHH: B22 VHH with L11S, L13Q, P14A, D31N, F32Y, L45F, S59N, S62A, H83N, D109N
B25: V-27 (VHH)
VHH: B22 VHH with L13Q, D31N, F32Y, H83N
B26: V-28 (VHH)
VHH: B22 VHH with L11S, L13Q, P14A, D31N, F32Y, H83N, A96T, I108S, D109N
B27: V-29 (VHH)
VHH: B22 VHH with L13Q, D31N, F32Y, L45F, S59N, S62A, H83N, D109N

The binders below were run against C78 (C-terminal ecto-domain protein of CD147) (assay: BLI; ForteBio Octet; biotin-labeled CD147 or C78 immobilized on the sensors (200 s); Nb 11-1 at different concentrations in PBST, 200 s; PBST 100 s; room temperature, shaking 1,000 rpm). Conditions: not given.
B1 was tested, and the Kd was 1.78 nM, the koff was 0.000104 s⁻¹ and the kon was 58200 M⁻¹ s⁻¹.

Each binder was assayed against T1, ecto-domain protein of CD147 (Homo sapiens (assumed), isoform 2, UniProt P35613-2, biotin (Sulfo-NHS-LC-Biotin) in the BLI only) (assay: BLI; kinetics between CD147 and EGFP-11-1 (Figure 3F); who was immobilised is not told for this pair). Conditions: both partners purified.
T1 construct: CD147 (EMMPRIN, basigin), ecto-domain protein; also called CD147 protein; EMMPRIN
Target sequence in this assay (P35613 whole entry, looked up, tested part not stated, canonical isoform): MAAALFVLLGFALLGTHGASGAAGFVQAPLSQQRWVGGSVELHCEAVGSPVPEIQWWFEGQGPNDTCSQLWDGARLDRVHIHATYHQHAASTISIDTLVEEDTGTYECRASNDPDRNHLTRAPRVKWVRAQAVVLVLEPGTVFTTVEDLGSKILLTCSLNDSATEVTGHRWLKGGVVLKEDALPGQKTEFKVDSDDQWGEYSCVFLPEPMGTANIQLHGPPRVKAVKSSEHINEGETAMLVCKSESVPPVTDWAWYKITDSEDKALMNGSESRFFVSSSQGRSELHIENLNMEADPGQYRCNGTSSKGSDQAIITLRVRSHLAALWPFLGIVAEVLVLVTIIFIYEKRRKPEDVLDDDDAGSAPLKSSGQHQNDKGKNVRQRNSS
B2 gave a Kd of 11.1 nM.

What follows are binders tested against T1, ecto-domain protein of CD147 (assay: not given). Conditions: not given.
Target sequence in this assay (P35613 other isoform, or with tags, fused parts or gaps): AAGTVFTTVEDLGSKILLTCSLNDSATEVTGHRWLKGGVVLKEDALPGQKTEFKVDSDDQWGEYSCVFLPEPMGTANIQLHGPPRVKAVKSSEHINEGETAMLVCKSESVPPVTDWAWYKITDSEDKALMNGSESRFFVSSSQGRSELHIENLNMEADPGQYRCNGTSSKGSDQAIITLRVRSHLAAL
B3: binds.
B4: binds.
B5: binds.
B6: binds.
B7: binds.
B8: binds.
B9: binds.
B10: binds.
B11: binds.
B12: binds.
B13: binds.
B14: binds.
B15: binds.
B16: binds.
B17: binds.
B18: binds.
B19: binds.
B20: binds.
B21: binds.
B22: binds.
B23: binds.
B24: binds.
B25: binds.
B26: binds.
B27: binds.

Each binder was assayed against T1, ecto-domain protein of CD147 (assay: BLI; ForteBio Octet; biotin-labeled CD147 or C78 immobilized on the sensors (200 s); Nb 11-1 at different concentrations in PBST, 200 s; PBST 100 s; room temperature, shaking 1,000 rpm). Conditions: both partners purified.
Target sequence in this assay (P35613 whole entry, looked up, tested part not stated, canonical isoform): as the sequence (P35613 whole entry, looked up, tested part not stated, canonical isoform) above
B1 was tested, and the Kd was 0.636 nM, the koff was 2.2e-05 s⁻¹ and the kon was 34600 M⁻¹ s⁻¹.
